Values of other authors as cited in publication PMC3359799.
Read-outs that look alike come from different tables or passages of the source.

Legend:
[1] = biological target: Exendin-4 (Heloderma suspectum) (UniProt P26349)
[2] = biological target: GLP-1 (Homo sapiens) (UniProt P01275)
[3] = biological target: Exendin-4 (Heloderma suspectum) (UniProt P26349); remark: listed apart in the source
[4] = biological target: GLP-1 (Homo sapiens) (UniProt P01275); remark: listed apart in the source
[5] = biological target: GLP-1 (Homo sapiens) (UniProt P01275); remark: listed apart in the source
[6] = biological target: Exendin-4 (Heloderma suspectum) (UniProt P26349); assay: surface plasmon resonance

Chain of UniProt P26349 (P26349 48-86): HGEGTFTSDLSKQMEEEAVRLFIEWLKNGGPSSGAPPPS
Chain of UniProt P01275 (P01275 98-127): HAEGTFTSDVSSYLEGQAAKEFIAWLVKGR

Substance | Kd [1] [µM] | Kd [2] [µM] | Kd [3] [µM] | Kd [4] [µM] | Kd [5] [µM] | Kd [6] [µM]
GLP-1 receptor (from UniProt P43220) | 0.0001 | 0.0003 |  |  |  | 
GLP-1 receptor ECD (from UniProt P43220) |  |  | 0.013 | 0.8 | 1 | 0.9
